According to patent US20260098059A1 (ENDOMET BIOSCIENCES, published 2026):
Several values for one entry are separate records, joined by “and”; a condition that tells them apart may be missing. Identical values can stand only once. Blank lines part the entries; values can stand above or below the binder they belong to. Where no end group is shown, it is not given here.

Target: T1, β-catenin (UniProt P35222 134-665, limits assumed, biotinylated in the SPR and plate assays)
T1 sequence (looked up): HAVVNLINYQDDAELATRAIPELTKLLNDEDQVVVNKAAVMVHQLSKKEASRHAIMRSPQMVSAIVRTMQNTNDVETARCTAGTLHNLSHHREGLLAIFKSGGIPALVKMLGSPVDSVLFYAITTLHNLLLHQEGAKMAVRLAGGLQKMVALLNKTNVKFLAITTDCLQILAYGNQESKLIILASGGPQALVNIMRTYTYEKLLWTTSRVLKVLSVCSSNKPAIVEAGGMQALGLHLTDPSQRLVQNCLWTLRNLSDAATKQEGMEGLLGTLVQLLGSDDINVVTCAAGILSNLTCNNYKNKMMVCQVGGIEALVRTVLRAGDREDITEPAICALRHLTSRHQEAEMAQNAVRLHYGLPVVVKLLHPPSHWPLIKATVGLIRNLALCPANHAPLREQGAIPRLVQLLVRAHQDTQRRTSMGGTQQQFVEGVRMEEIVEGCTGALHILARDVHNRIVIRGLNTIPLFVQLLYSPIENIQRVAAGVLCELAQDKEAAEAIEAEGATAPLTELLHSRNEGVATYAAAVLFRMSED
Test: cell-based or functional assay

Wnt Reporter EC50: > 7.5 µM and ≤ 15 µM
Binder: MWFLISFW-NH2 [SEQ ID NO: 107]

Wnt Reporter EC50: > 7.5 µM and ≤ 15 µM
Binder: H-WFLISFW-OH [SEQ ID NO: 110]

Wnt Reporter EC50: > 30 µM
Binder: MSRMWFLISFW-NH2 [SEQ ID NO: 72]

Wnt Reporter EC50: > 15 µM and ≤ 22.5 µM
B1: SEQ ID NO: 106 (peptide)
peptide: MSRMWFLISSW
HELM: PEPTIDE1{M.S.R.M.W.F.L.I.S.[O=C([C@H](COCc1ccccc1)N[*:1])[*:2]].W}$$$$V2.0
SMILES: CC[C@H](C)[C@H](NC(=O)[C@H](CC(C)C)NC(=O)[C@H](Cc1ccccc1)NC(=O)[C@H](Cc1c[nH]c2ccccc12)NC(=O)[C@H](CCSC)NC(=O)[C@H](CCCNC(=N)N)NC(=O)[C@H](CO)NC(=O)[C@@H](N)CCSC)C(=O)N[C@@H](CO)C(=O)N[C@@H](COCc1ccccc1)C(=O)N[C@@H](Cc1c[nH]c2ccccc12)C(=O)O

Wnt Reporter EC50: > 30 µM
Binder: KSRHWFLISFW-NH2 [SEQ ID NO: 94]

Wnt Reporter EC50: > 30 µM
B2: SEQ ID NO: 32 (peptide)
peptide: KSRMWYLISFW
HELM: PEPTIDE1{K.S.R.M.W.Y.L.I.S.F.W}$PEPTIDE1,PEPTIDE1,1:R3-11:R2$$$V2.0
SMILES: CC[C@H](C)[C@@H]1NC(=O)[C@H](CC(C)C)NC(=O)[C@H](Cc2ccc(O)cc2)NC(=O)[C@H](Cc2c[nH]c3ccccc23)NC(=O)[C@H](CCSC)NC(=O)[C@H](CCCNC(=N)N)NC(=O)[C@H](CO)NC(=O)[C@@H](N)CCCCNC(=O)[C@H](Cc2c[nH]c3ccccc23)NC(=O)[C@H](Cc2ccccc2)NC(=O)[C@H](CO)NC1=O

Wnt Reporter EC50: > 30 µM
Binder: MSRWWFLISFW-NH2 [SEQ ID NO: 78]

Wnt Reporter EC50: > 22.5 µM and ≤ 30 µM
Binder: H-MSRMWFLISSW-OH [SEQ ID NO: 99]

Wnt Reporter EC50: > 30 µM
Binder: MSRRWFLISFW-NH2 [SEQ ID NO: 75]

Wnt Reporter EC50: > 30 µM
Binder: DSRMWFLISFW-NH2 [SEQ ID NO: 85]

Wnt Reporter EC50: > 30 µM
Binder: KSRMWFLISFW-NH2 [SEQ ID NO: 83]

Wnt Reporter EC50: > 30 µM
Binder: MSRKWFLISFW-NH2 [SEQ ID NO: 87]

Wnt Reporter EC50: > 30 µM
Binder: MSRTWFLISFW-NH2 [SEQ ID NO: 76]

Wnt Reporter EC50: > 30 µM
Binder: MTRMWFLISFW-NH2 [SEQ ID NO: 73]

Wnt Reporter EC50: > 30 µM
Binder: HSRMWFLISFW-NH2 [SEQ ID NO: 89]

Wnt Reporter EC50: > 30 µM
Binder: RSRMWFLISFW-NH2 [SEQ ID NO: 84]

Wnt Reporter EC50: > 15 µM and ≤ 22.5 µM
Binder: WSRWWFLISFW-NH2 [SEQ ID NO: 92]

Wnt Reporter EC50: > 30 µM
Binder: KSRKWFLISFW-NH2 [SEQ ID NO: 93]

Wnt Reporter EC50: > 7.5 µM and ≤ 15 µM
B3: SEQ ID NO: 105 (peptide)
peptide: MSRMWFLISSW
HELM: PEPTIDE1{M.S.R.M.W.F.L.I.S.[CCOC[C@H](N[*:1])C(=O)[*:2]].W}$$$$V2.0
SMILES: CCOC[C@H](NC(=O)[C@H](CO)NC(=O)[C@@H](NC(=O)[C@H](CC(C)C)NC(=O)[C@H](Cc1ccccc1)NC(=O)[C@H](Cc1c[nH]c2ccccc12)NC(=O)[C@H](CCSC)NC(=O)[C@H](CCCNC(=N)N)NC(=O)[C@H](CO)NC(=O)[C@@H](N)CCSC)[C@@H](C)CC)C(=O)N[C@@H](Cc1c[nH]c2ccccc12)C(=O)O

Wnt Reporter EC50: > 30 µM
Binder: WSRKWFLISFW-NH2 [SEQ ID NO: 90]

Wnt Reporter EC50: > 30 µM
Binder: FSRMWFLISFW-NH2 [SEQ ID NO: 81]

Wnt Reporter EC50: > 30 µM
Binder: MSRHWFLISFW-NH2 [SEQ ID NO: 88]

Wnt Reporter EC50: > 30 µM
Binder: MSRFWFLISFW-NH2 [SEQ ID NO: 77]

Wnt Reporter EC50: > 30 µM
Binder: MQRMWFLISFW-NH2 [SEQ ID NO: 74]

Wnt Reporter EC50: > 30 µM
Binder: WSRMWFLISFW-NH2 [SEQ ID NO: 79]

Wnt Reporter EC50: > 30 µM
Binder: ESRMWFLISFW-NH2 [SEQ ID NO: 86]

Wnt Reporter EC50: > 30 µM
Binder: KSRWWFLISFW-NH2 [SEQ ID NO: 95]

Wnt Reporter EC50: > 30 µM
Binder: YSRMWFLISFW-NH2 [SEQ ID NO: 82]

Wnt Reporter EC50: > 30 µM
Binder: MSRMWWLISFW-NH2 [SEQ ID NO: 80]

Wnt Reporter EC50: > 30 µM
Binder: WSRHWFLISFW-NH2 [SEQ ID NO: 91]

Wnt Reporter EC50: > 30 µM
Binder: WFLISFW-NH2 [SEQ ID NO: 98]

Wnt Reporter EC50: > 7.5 µM and ≤ 15 µM
B4: SEQ ID NO: 101 (peptide)
peptide: WFLISSW
HELM: PEPTIDE1{W.F.L.I.S.[O=C([C@H](COCc1ccccc1)N[*:1])[*:2]].W}$$$$V2.0
SMILES: CC[C@H](C)[C@H](NC(=O)[C@H](CC(C)C)NC(=O)[C@H](Cc1ccccc1)NC(=O)[C@@H](N)Cc1c[nH]c2ccccc12)C(=O)N[C@@H](CO)C(=O)N[C@@H](COCc1ccccc1)C(=O)N[C@@H](Cc1c[nH]c2ccccc12)C(=O)O

Wnt Reporter EC50: > 22.5 µM and ≤ 30 µM
Binder: H-WFLISSW-OH [SEQ ID NO: 97]

Wnt Reporter EC50: > 7.5 µM and ≤ 15 µM
Binder: H-WFLISYW-OH [SEQ ID NO: 109]

Wnt Reporter EC50: > 7.5 µM and ≤ 15 µM
Binder: H-WFLITTW-OH [SEQ ID NO: 100]

Wnt Reporter EC50: > 15 µM and ≤ 22.5 µM
Binder: H-WFLISTW-OH [SEQ ID NO: 103]

Wnt Reporter EC50: > 7.5 µM and ≤ 15 µM
B5: SEQ ID NO: 104 (peptide)
peptide: WFLISSW
HELM: PEPTIDE1{W.F.L.I.S.[CCOC[C@H](N[*:1])C(=O)[*:2]].W}$$$$V2.0
SMILES: CCOC[C@H](NC(=O)[C@H](CO)NC(=O)[C@@H](NC(=O)[C@H](CC(C)C)NC(=O)[C@H](Cc1ccccc1)NC(=O)[C@@H](N)Cc1c[nH]c2ccccc12)[C@@H](C)CC)C(=O)N[C@@H](Cc1c[nH]c2ccccc12)C(=O)O
